Experimental data from patent US20130236458A1 (AbbVie / Abbott, published 2013).

T1: Recombinant Human IL-17 (human, UniProt Q16552 20-155, limits assumed)
T1 construct: bought reagent; also called IL-17A
T1 sequence (looked up): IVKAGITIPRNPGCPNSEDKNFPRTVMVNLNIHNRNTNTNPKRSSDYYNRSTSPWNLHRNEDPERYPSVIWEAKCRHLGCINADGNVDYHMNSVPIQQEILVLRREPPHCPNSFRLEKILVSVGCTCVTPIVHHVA


Columns and labels:
[1] = biological target: T2, Recombinant Human IL-13 (human, UniProt P35225 35-146, limits assumed); assay: SPR (Biacore)
T2 construct: bought reagent
T2 sequence (P35225 35-146 limits assumed): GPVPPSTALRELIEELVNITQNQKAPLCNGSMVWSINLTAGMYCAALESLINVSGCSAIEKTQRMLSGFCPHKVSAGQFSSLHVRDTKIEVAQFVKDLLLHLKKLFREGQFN
Experimental: (§1) The BIACORE assay (Biacore, Inc, Piscataway, N.J.) determined the affinity of antibodies or DVD-Ig with kinetic measurements of on-rate and off-rate constants. Binding of antibodies or DVD-Ig proteins to a target antigen (for example, a purified recombinant target antigen) was determined by surface plasmon resonance-based measurements with a Biacore®1000 or 3000 instrument (Biacore® AB, Uppsala, Sweden) using running HBS-EP (10 mM HEPES [pH 7.4], 150 mM NaCl, 3 mM EDTA, and 0.005% surfactant P20) at 25° C. All chemicals were obtained from Biacore® AB (Uppsala, Sweden) or otherwise from a different source as described in the text. For example, approximately 5000 RU of goat anti-mouse IgG, (Fcγ), fragment specific polyclonal antibody (Pierce Biotechnology Inc, Rockford, Ill.) diluted in 10 mM sodium acetate (pH 4.5) was directly immobilized across a CM5 research grade biosensor chip using a standard amine coupling kit according to manufacturer's instructions and procedures at 25 μg/ml. Unreacted moieties on the biosensor surface were blocked with ethanolamine. Modified carboxymethyl dextran surface in flowcell 2 and 4 was used as a reaction surface. Unmodified carboxymethyl dextran without goat anti-mouse IgG in flow cell 1 and 3 was used as the reference surface. For kinetic analysis, rate equations derived from the 1:1 Langmuir binding model were fitted simultaneously to association and dissociation phases of all eight injections (using global fit analysis) with the use of Biaevaluation 4.0.1 software. Purified antibodies or DVD-Ig proteins were diluted in HEPES-buffered saline for capture across goat anti-mouse IgG specific reaction surfaces. Antibodies or DVD-Ig proteins to be captured as a ligand (25 μg/ml) were injected over reaction matrices at a flow rate of 5 μl/minute. The association and dissociation rate constants, kₒₙ (M⁻¹s⁻¹) and koff (s⁻¹) were determined under a continuous flow rate of 25 μl/minute. Rate constants were derived by making kinetic binding measurements at different antigen concentrations ranging from 10-200 nM. The equilibrium dissociation constant (M) of the reaction between antibodies or DVD-Ig proteins and the target antigen was then calculated from the kinetic rate constants by the following formula: KD=koff/kₒₙ. Binding was recorded as a function of time and kinetic rate constants were calculated.

[2] = biological target: T1, Recombinant Human IL-17; assay: SPR (Biacore)
Experimental: as §1

[3] = biological target: T2, Recombinant Human IL-13; assay: cell-based or functional assay
[4] = biological target: T1, Recombinant Human IL-17; assay: cell-based or functional assay

Row | Kd [1] | koff [1] | kon [1] | Kd [2] | koff [2] | kon [2] | C-Terminal VD IL13 Neutralization Assay IC50 [3] | N-Terminal VD IL17 Neutralization Assay IC50 [4] | N-Terminal VD IL13 Neutralization Assay IC50 [3] | C-Terminal VD IL17 Neutralization Assay IC50 [4] | Binder
1 | 66 pM | 3.9e-05 s⁻¹ | 590000 M⁻¹ s⁻¹ | 12 pM | 2.2e-05 s⁻¹ | 1.9e+06 M⁻¹ s⁻¹ | 28 pM | 14 pM | – | – | DVD2193 (bispecific antibody, DVD-Ig; also called DVD2193H; DVD2193L) VH: EVQLVQSGAEVKKPGSSVKVSCKASGGSFGGYGIGWVRQAPGQGLEWMGGITPFFGFADYAQKFQGRVTITADESTTTAYMELSGLTSDDTAVYYCARDPNEFWNGYYSTHDFDSWGQGTTVTVSSASTKGPEVQLVQSGAEVKKPGASVKVSCKASGYTFTSYWMHWVRQAPGQGLEWIGNINPKGGSNIYNEKFQGRVTMTRDTSISTAYMELSRLRSDDTAVYYCARLDYFGDSFDLWGQGTTVTVSS VL: EIVLTQSPDFQSVTPKEKVTITCRASQDIGSELHWYQQKPDQPPKLLIKYASHSTSGVPSRFSGSGSGTDFTLTINGLEAEDAGTYYCHQTDSLPYTFGPGTKVDIKRTVAAPSVFIFPPDIQMTQSPSSLSASVGDRVTITCRASQGIRNYLNWYQQKPGKAPKLLIYYASNLEVGVPSRFSGSGSGTDYTLTISSLQPEDFATYYCQQDNRFPYTFGGGTKVEIKR
2 | 26 pM | 3.4e-05 s⁻¹ | 1.3e+06 M⁻¹ s⁻¹ | 19 pM | 4.4e-05 s⁻¹ | 2.3e+06 M⁻¹ s⁻¹ | 88 pM | 10.2 pM | – | – | DVD2199 (bispecific antibody, DVD-Ig; also called DVD2199H; DVD2199L) VH: EVQLVQSGAEVKKPGESVKISCKASGGSFRSYGISWVRQAPGQGLEWMGGITHFFGITDYAQKFQGRVTITADESTTTAYMELSGLTSDDTAVYYCAREPNDFWNGYYDTHDFDSWGQGTTVTVSSASTKGPEVQLVQSGAEVKKPGASVKVSCKASGYTFTSYWMHWVRQAPGQGLEWIGNINPKGGSNIYNEKFQGRVTMTRDTSISTAYMELSRLRSDDTAVYYCARLDYFGDSFDLWGQGTTVTVSS VL: EIVLTQSPDFQSVTPKEKVTITCRASQNIGSELHWYQQKPDQSPKLLIKYASHSISGVPSRFSGSGSGTDFTLTINGLEAEDAATYYCHQSDTLPHTFGQGTKVDIKRTVAAPSVFIFPPDIQMTQSPSSLSASVGDRVTITCRASQGIRNYLNWYQQKPGKAPKLLIYYASNLEVGVPSRFSGSGSGTDYTLTISSLQPEDFATYYCQQDNRFPYTFGGGTKVEIKR
3 | 14 pM | 3.7e-05 s⁻¹ | 2.6e+06 M⁻¹ s⁻¹ | 2 pM | 4.8e-06 s⁻¹ | 2.4e+06 M⁻¹ s⁻¹ | 52 pM | 18.1 pM | – | – | DVD2195 (bispecific antibody, DVD-Ig; also called DVD2195H; DVD2195L) VH: EVQLVQSGAEVKKPGSSVKVSCKASGGSFGGYGIGWVRQAPGQGLEWMGGITPFFGFADYAQKFQGRVTITADESTTTAYMELSGLTSDDTAVYYCARDPNEFWNGYYSTHDFDSWGQGTTVTVSSASTKGPSVFPLAPEVQLVQSGAEVKKPGASVKVSCKASGYTFTSYWMHWVRQAPGQGLEWIGNINPKGGSNIYNEKFQGRVTMTRDTSISTAYMELSRLRSDDTAVYYCARLDYFGDSFDLWGQGTTVTVSS VL: EIVLTQSPDFQSVTPKEKVTITCRASQDIGSELHWYQQKPDQPPKLLIKYASHSTSGVPSRFSGSGSGTDFTLTINGLEAEDAGTYYCHQTDSLPYTFGPGTKVDIKRTVAAPDIQMTQSPSSLSASVGDRVTITCRASQGIRNYLNWYQQKPGKAPKLLIYYASNLEVGVPSRFSGSGSGTDYTLTISSLQPEDFATYYCQQDNRFPYTFGGGTKVEIKR
4 | 24 pM | 5.7e-05 s⁻¹ | 2.4e+06 M⁻¹ s⁻¹ | 40 pM | 6.3e-05 s⁻¹ | 1.6e+06 M⁻¹ s⁻¹ | 92 pM | 11.6 pM | – | – | DVD2201 (bispecific antibody, DVD-Ig; also called DVD2201H; DVD2201L) VH: EVQLVQSGAEVKKPGESVKISCKASGGSFRSYGISWVRQAPGQGLEWMGGITHFFGITDYAQKFQGRVTITADESTTTAYMELSGLTSDDTAVYYCAREPNDFWNGYYDTHDFDSWGQGTTVTVSSASTKGPSVFPLAPEVQLVQSGAEVKKPGASVKVSCKASGYTFTSYWMHWVRQAPGQGLEWIGNINPKGGSNIYNEKFQGRVTMTRDTSISTAYMELSRLRSDDTAVYYCARLDYFGDSFDLWGQGTTVTVSS VL: EIVLTQSPDFQSVTPKEKVTITCRASQNIGSELHWYQQKPDQSPKLLIKYASHSISGVPSRFSGSGSGTDFTLTINGLEAEDAATYYCHQSDTLPHTFGQGTKVDIKRTVAAPDIQMTQSPSSLSASVGDRVTITCRASQGIRNYLNWYQQKPGKAPKLLIYYASNLEVGVPSRFSGSGSGTDYTLTISSLQPEDFATYYCQQDNRFPYTFGGGTKVEIKR
5 | 140 pM | 4.4e-05 s⁻¹ | 310000 M⁻¹ s⁻¹ | 38 pM | 6.2e-05 s⁻¹ | 1.6e+06 M⁻¹ s⁻¹ | 81 pM | 5 pM | – | – | DVD2197 (bispecific antibody, DVD-Ig; also called DVD2197H; DVD2197L) VH: EVQLVQSGAEVKKPGESVKISCKASGGSFRSYGISWVRQAPGQGLEWMGGITHFFGITDYAQKFQGRVTITADESTTTAYMELSGLTSDDTAVYYCAREPNDFWNGYYDTHDFDSWGQGTTVTVSSASTKGPEVQLVQSGAEVKKPGASVKVSCKASGYTFTSYWMHWVRQAPGQGLEWIGNINPKGGSNIYNEKFQGRVTMTRDTSISTAYMELSRLRSDDTAVYYCARLDYFGDSFDLWGQGTTVTVSS VL: EIVLTQSPDFQSVTPKEKVTITCRASQNIGSELHWYQQKPDQSPKLLIKYASHSISGVPSRFSGSGSGTDFTLTINGLEAEDAATYYCHQSDTLPHTFGQGTKVDIKRTVAAPDIQMTQSPSSLSASVGDRVTITCRASQGIRNYLNWYQQKPGKAPKLLIYYASNLEVGVPSRFSGSGSGTDYTLTISSLQPEDFATYYCQQDNRFPYTFGGGTKVEIKR
6 | – | – | – | – | – | – | 2440 pM | 4.9 pM | – | – | DVD2153 (bispecific antibody) VH: EVQLVQSGAEVKKPGSSVKVSCKASGYTFTDYEIHWVRQAPGQGLEWMGVNDPESGGTFYNQKFDGRVTLTADESTSTAYMELSSLRSEDTAVYYCTRYSKWDSFDGMDYWGQGTTVTVSSASTKGPSVFPLAPEVTLRESGPGLVKPTQTLTLTCTLYGFSLSTSDMGVDWIRQPPGKGLEWLAHIWWDDVKRYNPALKSRLTISKDTSKNQVVLKLTSVDPVDTATYYCARTVSSGYIYYAMDYWGQGTLVTVSS VL: DIQMTQSPSSLSASVGDRVTITCRASSGIISYIDWFQQKPGKAPKRLIYATFDLASGVPSRFSGSGSGTDYTLTISSLQPEDFATYYCRQVGSYPETFGQGTKLEIKRTVAAPDIQMTQSPSSLSASVGDRVTISCRASQDIRNYLNWYQQKPGKAPKLLIFYTSKLHSGVPSRFSGSGSGTDYTLTISSLQPEDIATYYCQQGLTPPLTFGGGTKVEIKR
7 | 29 pM | 6.4e-05 s⁻¹ | 2.2e+06 M⁻¹ s⁻¹ | < 9.1 pM | < 1e-06 s⁻¹ | 110000 M⁻¹ s⁻¹ | – | – | 29 pM | 55.1 pM | DVD2196 (bispecific antibody, DVD-Ig; also called DVD2196H; DVD2196L) VH: EVQLVQSGAEVKKPGASVKVSCKASGYTFTSYWMHWVRQAPGQGLEWIGNINPKGGSNIYNEKFQGRVTMTRDTSISTAYMELSRLRSDDTAVYYCARLDYFGDSFDLWGQGTTVTVSSASTKGPEVQLVQSGAEVKKPGESVKISCKASGGSFRSYGISWVRQAPGQGLEWMGGITHFFGITDYAQKFQGRVTITADESTTTAYMELSGLTSDDTAVYYCAREPNDFWNGYYDTHDFDSWGQGTTVTVSS VL: DIQMTQSPSSLSASVGDRVTITCRASQGIRNYLNWYQQKPGKAPKLLIYYASNLEVGVPSRFSGSGSGTDYTLTISSLQPEDFATYYCQQDNRFPYTFGGGTKVEIKRTVAAPEIVLTQSPDFQSVTPKEKVTITCRASQNIGSELHWYQQKPDQSPKLLIKYASHSISGVPSRFSGSGSGTDFTLTINGLEAEDAATYYCHQSDTLPHTFGQGTKVDIKR
8 | 45 pM | 6e-05 s⁻¹ | 1.3e+06 M⁻¹ s⁻¹ | 25 pM | 4.6e-06 s⁻¹ | 180000 M⁻¹ s⁻¹ | – | – | 96 pM | 7.2 pM | DVD2200 (bispecific antibody, DVD-Ig; also called DVD2200H; DVD2200L) VH: EVQLVQSGAEVKKPGASVKVSCKASGYTFTSYWMHWVRQAPGQGLEWIGNINPKGGSNIYNEKFQGRVTMTRDTSISTAYMELSRLRSDDTAVYYCARLDYFGDSFDLWGQGTTVTVSSASTKGPSVFPLAPEVQLVQSGAEVKKPGESVKISCKASGGSFRSYGISWVRQAPGQGLEWMGGITHFFGITDYAQKFQGRVTITADESTTTAYMELSGLTSDDTAVYYCAREPNDFWNGYYDTHDFDSWGQGTTVTVSS VL: DIQMTQSPSSLSASVGDRVTITCRASQGIRNYLNWYQQKPGKAPKLLIYYASNLEVGVPSRFSGSGSGTDYTLTISSLQPEDFATYYCQQDNRFPYTFGGGTKVEIKRTVAAPEIVLTQSPDFQSVTPKEKVTITCRASQNIGSELHWYQQKPDQSPKLLIKYASHSISGVPSRFSGSGSGTDFTLTINGLEAEDAATYYCHQSDTLPHTFGQGTKVDIKR
